Measured values from patent publication US10208290B2, “Virion display array for profiling functions and interactions of human membrane proteins” (THE JOHNS HOPKINS UNIVERSITY, priority 2013, dated 2019).

Tests used:
GPR77 [1] = target: T1, GPR77 (Homo sapiens, UniProt Q9P296); experiment: Ligand binding assay on VirD Array; details: C5a at 1 μM, gB:GPR77 virions on VirD Array
T1 construct: gB:CD4 and gB:GPR77, express the full-length human membrane proteins at the gB locus under the control of native gB promoter; made in house; host or cells: HFT cells (telomerase-immortalised human foreskin fibroblasts) infected with recombinant HSV-1; purified extracellular virions
Method: (§1) Ligand binding assay on VirD Array. The VirD Array was blocked in TBST with 1% BSA for 1 h at room temperature with gentle shaking. C5a (Abcam) was labeled with Cy5 NHS Easter (GE Healthcare) and incubated on the VirD Array at 1 μM in ligand binding buffer (1 mM MgCl2, 2 mM CalCl2, 0.2% BSA, and 25 mM HEPES, pH 7.4) at room temperature for 1 h with gentle shaking. The array was washed for […] in ice-cold washing buffer (0.5 M NaCl in 10 mM HEPES, pH 7.4) for 3 times with shaking, dried by spinning, and scanned as described above.

GPR77 [2] = experiment: Ligand binding assay on VirD Array; design: species or system human; details: C5a at 1 μM
Method: as §1

T1 sequence (Q9P296 whole entry): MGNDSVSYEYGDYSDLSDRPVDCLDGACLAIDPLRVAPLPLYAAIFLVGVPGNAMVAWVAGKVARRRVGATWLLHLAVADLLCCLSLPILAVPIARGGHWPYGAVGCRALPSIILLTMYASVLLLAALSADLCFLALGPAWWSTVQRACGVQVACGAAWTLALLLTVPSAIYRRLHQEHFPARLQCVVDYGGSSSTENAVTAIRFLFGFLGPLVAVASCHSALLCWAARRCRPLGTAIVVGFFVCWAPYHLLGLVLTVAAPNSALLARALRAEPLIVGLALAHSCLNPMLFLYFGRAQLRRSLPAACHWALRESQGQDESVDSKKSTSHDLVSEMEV

B1: C5a: complement anaphylatoxin C5a, canonical ligand of GPR77 (Abcam), labeled with Cy5 (protein)
chain: TLQKKIEEIAAKYKHSVVKKCCYDGACVNNDETCEQRAARISLGPRCIKAFTECCVVASQLRANISHKDMQLGR
GPR77 [1]
  binding of Cy5-labeled C5a to gB:GPR77 virions: weaker binding signals
GPR77 [2]; GPR77-gC virions on VirD Array
  binding of Cy5-labeled C5a to GPR77-gC virions: strong binding activity
GPR77 [2]; other virions on VirD Array (specificity)
  binding of Cy5-labeled C5a to other virions: no detectable signals
